Results published in publication PMC11228995.
“And” between values parts separate entries of the source, which are not always exact repeats. Identical values can stand only once.

Tests used:
CXCL4 [1] = experiment: native MS; pure chemokine, 20 μM in 250 mM ammonium acetate buffer, nanoelectrospray, Waters Synapt G2-S, ion mobility separation bypassed
CXCL4 [2] = experiment: native MS; chemokine (20 μM solution in 250 mM ammonium acetate) mixed with fondaparinux at 1:1 molar ratio, nanoelectrospray, spectra deconvoluted in UniDec

- stoichiometry N (CXCL4 [1]): 4
- stoichiometry N (CXCL4 [2]): 4 and 2
Substance: CXCL4 (natural protein)
